{
  "source": "patent US20260216299A1",
  "about": "“Use of Cytoglobin in Preparation of Drug for Preventing and/or Treating Diabetes” (priority 2022, published 2026)",
  "molecules": {"B1": {"name": "rhCygb: recombinant human cytoglobin; hexacoordinate heme globin, 21.4 kDa, 190 amino acids, injected as PBS solution (protein, UniProt Q8WWM9 1-190, looked up)", "Cytoglobin": "MEKVPGEMEIERRERSEELSEAERKAVQAMWARLYANCEDVGVAILVRFFVNFPSAKQYFSQFKHMEDPLEMERSPQLRKHACRVMGALNTVVENLHDPDKVSSVLALVGKAHALKHKVEPVYFKILSGVILEVVAEEFASDFPPETQRAWAKLRGLIYSHVTAAYKEVGWVQQVPNATTPPATLPSSGP"}},
  "type_in_all_cases": "in vivo, C57BL/6J mice",
  "key": {"[1]": {"test_system": "renal tissue of C57BL/6J diabetic model mice", "experiment": "H&E staining of renal tissue", "conditions": "FIG. 14", "protocol": "(§1) The AUC for blood glucose changes within two hours post-glucose gavage was shown in FIG. 5, confirming impaired glucose tolerance in the DM group. • 2) Successfully modeled mice were divided into three groups based on no statistical difference in blood glucose within groups and statistical difference in blood glucose between groups: wherein the three groups are rhCygb treatment group (5 mg/kg subcutaneous injection), exendin-4 treatment group (50 μg/kg subcutaneous injection), and placebo group (0.1 mL PBS subcutaneous injection) (grouping without re-caging, mice remained in original cages), respectively.\nThe mice of placebo group, rhCygb treatment group, and EX-4 treatment group received daily subcutaneous injections of PBS, rhCygb, or EX-4, respectively for 2 months (frequency adjusted based on survival status of mice). […] Mice were immediately sacrificed by cervical dislocation after blood collection and dissected for tissue collection. Liver tissue, pancreas, kidneys, heart, lungs, stomach, and spleen were sequentially collected for biochemical and pathological examination as detailed below. 3. Measurement of four blood lipid items • 1) Total Cholesterol (T-CHO) Measurement: prepared serum was diluted tenfold with physiological saline at a 1:9 ratio. […] Absorbance at 510 nm was measured using a microplate reader. Cholesterol content was calculated according to the formula: […]"}, "[2]": {"test_system": "Insulin and Glucagon expression in pancreatic islets", "experiment": "Glucagon/Insulin immunohistochemistry of pancreatic islets (average optical density)", "protocol": "(§2) Pancreatic tissues were sectioned at 4 μm and baked at 60° C. for 2 h until paraffin melted. Sections underwent hematoxylin-eosin (H&E) staining.\n(§3) Sections were immersed in methanol containing 3% hydrogen peroxide (endogenous peroxidase blocker) for 15 min. After PBS (10 mM, pH=7.0) rinsing, sections were incubated at 25° C. for 1 h with antibody cocktails (rabbit anti-glucagon monoclonal antibody: anti-somatostatin antibody=1:1), or separately with: anti-mouse insulin antigen monoclonal antibody, anti-proliferating cell nuclear antigen (PCNA) monoclonal antibody, rabbit anti-Ki67 monoclonal antibody. Alternatively, sections were incubated with guinea pig anti-PDX-1 monoclonal antibody at 4° C. for 14 h. Nuclei were counterstained blue with hematoxylin and sections were subjected to morphometric analysis.\nGlucagon/Insulin Analysis Method: The immunohistochemistry results were analyzed for average optical density analysis using Image-Pro Plus 6.0 (Media Cybernetics, Inc., Rockville, MD, USA). For each section with a group, at least 3 fields of view at 200× magnification were captured. […] The integrated optical density (IOD) value of positive staining on the pancreatic islet and the pixel area (AREA) of the pancreatic islet were analyzed for each photo. The average optical density value (AO value) was calculated as AO=IOD/AREA. […]"}, "PCNA": {"test_system": "PCNA", "experiment": "PCNA immunohistochemistry of pancreatic tissue", "conditions": "pancreas; 4-week treatment; FIG. 15 to 16D", "protocol": "as §2, §3\nPCNA Analysis method: The immunohistochemistry results were analyzed for percentage using Image-Pro Plus 6.0 (Media Cybernetics, Rockville, MD, USA), at least 3 random field of view at 200× per section within a group were captured. […] Each photo was analyzed to obtain the number of positive cells and the total number of cells in each photo. Then, the percentage of positive cells was calculated, as: Positive cell percentage (%)=(Positive nuclei count/Total nuclei count)*100 was calculated as the positive rate."}, "[3]": {"test_system": "C57BL/6J diabetic model mice", "experiment": "Four blood lipid items in serum of treated mice (T-CHO, TG, HDL-C, LDL-C kits)", "conditions": "after 28 d of treatment", "protocol": "as §1\nThe mice of placebo group, rhCygb treatment group, and EX-4 treatment group received daily subcutaneous injections of PBS, rhCygb, or EX-4, respectively for 2 months (frequency adjusted based on survival status of mice). […] Mice were immediately sacrificed by cervical dislocation after blood collection and dissected for tissue collection. Liver tissue, pancreas, kidneys, heart, lungs, stomach, and spleen were sequentially collected for biochemical and pathological examination as detailed below. 3. Measurement of four blood lipid items • 1) Total Cholesterol (T-CHO) Measurement: prepared serum was diluted tenfold with physiological saline at a 1:9 ratio. Into each well of a 96-well plate, 2.5 μL of deionized water, 2.5 μL of standard, and 2.5 μL of sample were sequentially added. Then, 250 μL of working solution was added to each well, thoroughly mixed, and incubated at 37° C. for 10 min in an electric thermostatic incubator. Absorbance at 510 nm was measured using a microplate reader. Cholesterol content was calculated according to the formula: […]\nSerum from each treated C57BL/6J mouse was assayed using a total cholesterol assay kit. […] Furthermore, no significant difference was observed between the treated groups (rhCygb treatment group and exendin-4 treatment group) and the blank control group, indicating effective therapeutic outcomes. • 2) Triglyceride (TG) Measurement: prepared serum was diluted tenfold with physiological saline at a 1:9 ratio. […] Absorbance at 510 nm was measured using a microplate reader. Triglyceride content was calculated according to the formula: […]\nSerum from each treated C57BL/6J mouse was assayed using a triglyceride assay kit. […] Absorbance at 546 nm (A1) was measured using a microplate reader. […] Absorbance at 546 nm (A2) was measured again. HDL-C content was calculated according to the formula: […]\nSerum from each treated C57BL/6J mouse was assayed using an HDL-C assay kit. […] Absorbance at 546 nm (A1) was measured using a microplate reader. […] Absorbance at 546 nm (A2) was measured again. LDL-C content was calculated according to the formula: […]"}, "[4]": {"test_system": "pancreatic tissue of C57BL/6J diabetic model mice", "experiment": "H&E staining of pancreatic tissue sections", "protocol": "as §1\n(§4) The mice of placebo group, rhCygb treatment group, and EX-4 treatment group received daily subcutaneous injections of PBS, rhCygb, or EX-4, respectively for 2 months (frequency adjusted based on survival status of mice). […] Absorbance at 510 nm was measured using a microplate reader. Cholesterol content was calculated according to the formula: […]\nThe severity of lesions observed in the HE-stained pathological sections of each mouse was graded. This ordinal data was analyzed using the K Independent Samples non-parametric test in SPSS software, and the result indicated a statistically significant difference between groups. As SPSS lacks pairwise comparison for multiple independent samples, all data were ranked and converted into quantitative data, then subjected to one-way ANOVA."}, "[5]": {"test_system": "C57BL/6J diabetic model mice", "experiment": "Weekly fasting blood glucose in high-fat diet diabetic model mice under treatment", "conditions": "daily subcutaneous injection, rhCygb 5 mg/kg; weekly monitoring; vs PBS group; FIG. 7", "excerpt": "50 SPF-grade male C57BL/6J mice were purchased from Guangzhou Sebiona Biotech Co., Ltd. Their health status and whether they were all male were checked. All male mice were divided into groups of 5 per cage, totaling ten cages, with cage numbering. Cages 1 to 8 were designated as the high-fat diet modeling group and fed a high-fat diet with ad libitum feeding and drinking. Cages 9 and 10 were designated as the normal diet modeling group and fed standard chow with ad libitum feeding and drinking. All mice were marked with tail lines for identification. During modeling, body weight and fasting blood glucose (FBG) levels of all mice were measured weekly, and tail markings were reinforced. […] At 9:00 AM every Friday, body weight was measured, the tail tip was clipped, and approximately 1-2 μL of (a drop of) blood was applied to a Roche Accu-Chek® Active test strip on a glucometer to determine FBG. […]\nas §4"}},
  "data": [
    {"molecule": "B1", "values": [
      {"measurement": "renal steatosis and inflammatory cell infiltration (H&E)", "setting": "[1]", "result": "near-normal renal morphology without significant inflammatory cells"},
      {"measurement": "expression level of glucagon (average optical density)", "setting": "[2]; FIG. 17, 19", "result": "statistically significant differences compared to both the PBS group and the NC group"},
      {"measurement": "expression level of insulin (average optical density)", "setting": "[2]; FIG. 18, 20", "result": "statistically significant differences compared to both the PBS group and the NC group"},
      {"measurement": "PCNA-positive cell rate", "setting": "PCNA", "result": "significantly enhanced PCNA staining intensity"},
      {"measurement": "HDL-C levels", "setting": "[3]; vs NC group, FIG. 10", "result": "numerically higher HDL-C levels on average compared to other groups"},
      {"measurement": "total cholesterol levels", "setting": "[3]; subcutaneous rhCygb 5 mg/kg or exendin-4 50 μg/kg, FIG. 8", "result": "statistically significant reduction in total cholesterol levels compared to the placebo group"},
      {"measurement": "LDL-C levels", "setting": "[3]; subcutaneous rhCygb 5 mg/kg or exendin-4 50 μg/kg, FIG. 11", "result": "statistically significant reduction in LDL-C levels compared to the placebo group"},
      {"measurement": "triglyceride levels", "setting": "[3]; subcutaneous rhCygb 5 mg/kg, FIG. 9", "result": "statistically significant reduction in triglyceride levels compared to the placebo group"},
      {"measurement": "severity of lesions in HE-stained pancreatic sections (graded, ranked, one-way ANOVA)", "setting": "[4]; FIG. 13", "result": "no significant difference between rhCygb and NC groups"},
      {"measurement": "pancreatic tissue morphology (H&E)", "setting": "[4]; acinar cell steatosis, islet morphology, inflammation, FIGS. 12A-12D", "result": "normal pancreatic islet morphology without significant inflammation"},
      {"measurement": "blood glucose", "setting": "[5]", "result": "significantly reduced blood glucose after 6 weeks"}
    ]}
  ]
}
